Experimental data taken from patent US20200140532A1 (Ablynx, published 2020).

T1: recombinant human Brevican (human, UniProt Q96GW7 23-911, limits assumed)
T1 sequence: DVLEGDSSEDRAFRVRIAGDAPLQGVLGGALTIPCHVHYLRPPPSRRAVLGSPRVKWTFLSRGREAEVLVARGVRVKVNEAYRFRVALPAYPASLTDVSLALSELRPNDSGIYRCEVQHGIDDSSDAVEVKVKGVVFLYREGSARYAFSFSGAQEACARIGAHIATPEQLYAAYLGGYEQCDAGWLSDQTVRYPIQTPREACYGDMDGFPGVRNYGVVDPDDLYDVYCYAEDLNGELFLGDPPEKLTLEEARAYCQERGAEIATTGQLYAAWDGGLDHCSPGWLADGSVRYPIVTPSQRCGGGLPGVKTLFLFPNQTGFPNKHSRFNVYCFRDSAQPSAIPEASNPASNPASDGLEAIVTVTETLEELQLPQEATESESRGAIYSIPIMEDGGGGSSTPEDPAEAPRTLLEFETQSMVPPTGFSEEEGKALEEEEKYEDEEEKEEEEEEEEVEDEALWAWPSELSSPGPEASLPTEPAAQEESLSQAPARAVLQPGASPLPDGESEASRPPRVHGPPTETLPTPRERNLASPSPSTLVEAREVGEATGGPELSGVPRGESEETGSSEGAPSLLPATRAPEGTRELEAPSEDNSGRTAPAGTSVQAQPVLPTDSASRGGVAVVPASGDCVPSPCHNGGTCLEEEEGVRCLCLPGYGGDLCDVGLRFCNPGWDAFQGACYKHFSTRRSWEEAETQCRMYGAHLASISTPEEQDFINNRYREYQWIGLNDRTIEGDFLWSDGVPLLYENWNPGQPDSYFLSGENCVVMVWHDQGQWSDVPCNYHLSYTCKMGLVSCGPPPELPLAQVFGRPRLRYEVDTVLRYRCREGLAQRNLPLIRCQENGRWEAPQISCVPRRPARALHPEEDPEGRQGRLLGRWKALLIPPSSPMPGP

B1: C01010046 (601E08-ALB26) (VHH, not shown: small tags and cut ends)
VHH: DVQLVESGGGLVQPGGSLRLSCTASGRTFSSYAVGWFRQAPGKEREFVAAISRSGRSTYYADSVKGRFTISRDNSKNTVYLQMNSLRPEDTAVYYCAAGLSYYSPHAYYDYWGQGTLVTVSS
B2: C01010094 (604F02-ALB26) (VHH, not shown: small tags and cut ends)
VHH: DVQLVESGGGLVQPGGSLRLSCAASGRTFSSYTMGWFRQAPGKEREFVAAISWSGGRTYYADSVKGRFTISRDNSKNTVYLQMNSLRPEDTAVYYCAAYRRRRASSNRGLWDYWGQGTLVTVSS
notes: also called C010100094
B3: C01010060 (606A07-ALB26) (VHH, not shown: small tags and cut ends)
VHH: DVQLVESGGGLVQPGGSLRLSCVASGRTFSIYGMGWFRQAPGKEREFVAAINGGSRTYYADSVKGRFTISRDNSKNTVYLQMNSLRPEDTAVYYCAADRSGYGTSLDWWYDYWGQGTLVTVSS
B4: C01010097 (608A05-ALB26) (VHH, not shown: small tags and cut ends)
VHH: DVQLVESGGGLVQPGGSLRLSCAASGRTFSTYTMGWFRQAPGKEREFVAAISWSGGTTYYADSVKGRFTISRDNSKNTVYLQMNSLRPEDTAVYYCAARPRYYYYSLYSYDYWGQGTLVTVSS
B5: C01010054 (114F08-ALB26) (VHH, not shown: small tags and cut ends)
VHH: EVQLVESGGGLVQAGGSLRLSCAASGSTFIINVVRWYRRTPGKQRELVATISSGGNANYVDSVRGRFSISRDGAKNAVDLQMNGLKPEDTAVYYCNVPTTHYGGVYYGPYWGQGTQVTVSS
notes: also called C010100054

target: T2, recombinant human Aggrecan G1-IGD-G2 (human, UniProt P16112 20-676); experiment: ELISA on recombinant G1-IGD-G2
T2 construct: Only the G1-IGD-G2 region was used (R&D Systems 1220-PG is named for the immunogen); also called Hu G1-IGD-G2

| EC50 [nM] | Binder |
| --- | --- |
| 5.1 | B1 |
| 1.2 | B2 |
| 12 | B3 |
| 0.24 | B4 |
| 6 | B5 |

target: T3, recombinant rat Aggrecan G1-IGD-G2 (rat, UniProt P07897 20-684, limits assumed); experiment: ELISA on recombinant G1-IGD-G2
T3 construct: also called Rat G1-IGD-G2

| EC50 [nM] | Binder |
| --- | --- |
| 0.32 | B1 |
| 5.9 | B2 |
| 8.4 | B3 |
| 0.33 | B4 |
| 7.6 | B5 |

target: T4, recombinant dog Aggrecan G1-IGD-G2 (dog, UniProt Q28343 20-693, limits assumed); experiment: ELISA on recombinant G1-IGD-G2
T4 construct: also called Dog G1-IGD-G2

| EC50 [nM] | Binder |
| --- | --- |
| 0.61 | B1 |
| 2.6 | B2 |
| 6.9 | B3 |
| 25 | B4 |
| 3 | B5 |

target: T5, recombinant bovine Aggrecan G1-IGD-G2 (bovine, UniProt P13608 20-684, limits assumed); experiment: ELISA on recombinant G1-IGD-G2
T5 construct: also called Bov G1-IGD-G2; Boy G1-IGD-G2

| EC50 [nM] | Binder |
| --- | --- |
| 1.2 | B1 |
| 1.6 | B2 |
| 0.28 | B4 |
| 5.6 | B5 |

target: T1, recombinant human Brevican; experiment: ELISA on recombinant human Brevican

| binding result | Binder |
| --- | --- |
| no binding | B1 |
| no binding | B2 |
| no binding | B3 |
| no binding | B4 |
| no binding | B5 |

target: recombinant human Neurocan (human, UniProt O14594 23-1321, limits assumed); experiment: ELISA on recombinant human Neurocan

| binding result | Binder |
| --- | --- |
| no binding | B1 |
| no binding | B2 |
| no binding | B4 |
| no binding | B5 |

target: T2, recombinant human Aggrecan G1-IGD-G2; experiment: SPR (ProteOn), off-rate only indicative
Procedure: (§1) SPR (ProteOn) experiments were carried out for the “monovalent” Aggrecan-ALB26 formats in order to determine off-rates.

| koff [s⁻¹] | Binder |
| --- | --- |
| 0.0034 | B1 |
| 0.17 | B2 |
| 0.021 | B3 |
| 0.0025 | B4 |
| 0.013 | B5 |

target: T3, recombinant rat Aggrecan G1-IGD-G2; experiment: SPR (ProteOn), off-rate only indicative
Procedure: as §1

| koff [s⁻¹] | Binder |
| --- | --- |
| 0.00025 | B1 |
| 0.26 | B2 |
| 0.021 | B3 |
| 0.0015 | B4 |
| 0.65 | B5 |

target: T4, recombinant dog Aggrecan G1-IGD-G2; experiment: SPR (ProteOn), off-rate only indicative
Procedure: as §1

| koff [s⁻¹] | Binder |
| --- | --- |
| 0.0071 | B1 |
| 0.12 | B2 |
| 0.038 | B3 |
| 0.083 | B4 |
| 0.011 | B5 |

target: T5, recombinant bovine Aggrecan G1-IGD-G2; experiment: SPR (ProteOn), off-rate only indicative
Procedure: as §1

| koff [s⁻¹] | Binder |
| --- | --- |
| 0.0013 | B1 |
| 0.26 | B2 |
| 0.027 | B3 |
| 0.0027 | B4 |
| 0.47 | B5 |
